Results on one molecule are retold here after publication PMC10069731 (Communications Biology, 2023).

Assay [1] deals with SARS-CoV-2 WT spike ECD, 6P-stabilized (SARS-CoV-2, WT (ancestral), UniProt P0DTC2, stabilised). The experiment in a line: ELISA. Conditions: both partners purified. In general terms: ELISA stands for enzyme-linked immunosorbent assay.
The target of assay [2] is SARS-CoV-2 Omicron BA.4/5 RBD (SARS-CoV-2 Omicron BA.4/5, strain). The experiment in a line: BLI. Conditions: both partners purified.

B1: rabbit monoclonal antibody (RmAb) 1H1, IgG (antibody, V domains shown)
VH: QSLEESGGDLVKPGASLTLTCTASGFSFSSGYDMCWVRQAPGKGLEWIACIGTGSSGNIYYASWAKGRFTISKTSSTTVTLQMTSLTAADTATYFCARDDADYAGPDYFNLWGPGTLVTVSS
VL: DIVMTQTPASVSEPVGGTVTIKCQASESISNWLAWYQQKPGQPPKLLIYAAFTLASGVPSRFKGSGSGTQFTLTINGVECADAATYYCQQTYSSRDVDNVFGGGTEVVVK
The term Kd denotes the constant that tells how readily two partners part at equilibrium. High values mean lower affinity, low ones higher affinity. Turning to B1, the binding result in assay [1] was “binds”. In assay [2], this molecule had a Kd of 1.33 nM.
